In publication PMC3716775, “Interaction between Trehalose and MTHase from Sulfolobus solfataricus Studied by Theoretical Computation and Site-Directed Mutagenesis” (PLoS ONE, 2013):
Substitutions are numbered along the chain they refer to. Names and notes keep the numbering of the source.

B1: MTHase (maltooligosyltrehalose trehalohydrolase) from S. solfataricus ATCC 35092 (Saccharolobus solfataricus P2) (protein)
chain: MTFGYKLDEDGVTFNLWAPYQRKVKLKILNRGIYEMERDDKGYFTITLDNVRVGDRYKYILDDNSEVPDPASRYQPEGVHGYSEIISPDFEWDDENSVKVKREDLVIYELHIGTFTSEGTFEGVIKKLNYLKELGVTAIEIMPIAQFPGKKDWGYDGVYLYAVQNSYGGPSGFRKLVNEAHKLGLAVILDVVYNHVGPEGNYMVKLGPYFSEKYKTPWGLTFNFDDAGSDEVRKFILENVEYWINEFHVDGFRLDAVHAIIDNSPKHILEDIADVVHKYDKIVIAESDLNDPRVVNPKEKCGYNIDAQWVDDFHHAIHAFLTGERQGYYSDFGSIGDIVKSYKDVFIYDGKYSNFRRKTHGKSVGDLDGCKFVVYIQNHDQVGNRGGGERLIKLVDKESYKIAAALYILSPYIPMIFMGEEYGEENPFYYFSDFSDPKLIQGVREGRRRENGQETDPQSDCTFNDSKLSWKINDDILSFYKSLIKIRKEYGLACNRKLSVENGNYWLTVKGNGCLAVYVFSKSVIEMKYSGTLVLSSNSSFPSQITESKYELDKGFALYKL
notes: expressed from pET-15b-ΔH-treZ in E. coli BL21-CodonPlus (DE3)-RIL; heat treatment 80 °C, Q-Sepharose; docking model was the KM1 enzyme (PDB 1EH9), not the assayed protein
B2: MTHase (maltooligosyltrehalose trehalohydrolase) from S. solfataricus ATCC 35092 (Saccharolobus solfataricus P2; R447A) (protein)
chain: B1 chain with R447A
notes: as for B1
B3: MTHase (maltooligosyltrehalose trehalohydrolase) from S. solfataricus ATCC 35092 (Saccharolobus solfataricus P2; H195A) (protein)
chain: B1 chain with H195A
notes: as for B1
B4: MTHase (maltooligosyltrehalose trehalohydrolase) from S. solfataricus ATCC 35092 (Saccharolobus solfataricus P2; Y155F) (protein)
chain: B1 chain with Y155F
notes: as for B1
B5: MTHase (maltooligosyltrehalose trehalohydrolase) from S. solfataricus ATCC 35092 (Saccharolobus solfataricus P2; D156A) (protein)
chain: B1 chain with D156A
notes: as for B1
B6: MTHase (maltooligosyltrehalose trehalohydrolase) from S. solfataricus ATCC 35092 (Saccharolobus solfataricus P2; Y155A) (protein)
chain: B1 chain with Y155A
notes: as for B1
B7: MTHase (maltooligosyltrehalose trehalohydrolase) from S. solfataricus ATCC 35092 (Saccharolobus solfataricus P2; E450A) (protein)
chain: B1 chain with E450A
notes: as for B1

Substrate: OC[C@H]1O[C@H](O[C@H]2O[C@H](CO)[C@@H](O[C@H]3O[C@H](CO)[C@@H](O[C@H]4O[C@H](CO)[C@@H](O[C@H]5O[C@H](CO)[C@@H](O)[C@H](O)[C@H]5O)[C@H](O)[C@H]4O)[C@H](O)[C@H]3O)[C@H](O)[C@H]2O)[C@H](O)[C@@H](O)[C@@H]1O
Assay: initial rates of G3T hydrolysis, Michaelis-Menten fit
Assay type: biochemical, Saccharolobus solfataricus
Settings: 50 mM citrate-phosphate pH 5, 60 °C
Text: initial rates of […] hydrolysis, Michaelis-Menten fit on […] (maltooligosyltrehalose trehalohydrolase) from S. solfataricus ATCC 35092

| Protein | Km [mM] | kcat [s⁻¹] | kcat/Km [M⁻¹ s⁻¹] |
| --- | --- | --- | --- |
| B1 | 5.22 ± 0.59 | 947 ± 40 | 182000 ± 14000 |
| B2 | 10.7 ± 1.3 | 303 ± 16 | 28200 ± 2000 |
| B3 | 4.18 ± 0.31 | 2.15 ± 0.05 | 510 ± 30 |
| B4 | 5.02 ± 0.34 | 27.8 ± 0.7 | 5540 ± 250 |
| B5 | 12.9 ± 2.3 | 608 ± 62 | 47300 ± 3700 |
| B6 | 39.2 ± 2.8 | 44.8 ± 1.7 | 1140 ± 40 |
| B7 | 7.48 ± 0.70 | 1070 ± 50 | 144000 ± 8000 |
